Where two headings read alike, the source gives them in different places.

Test [1] addresses T1, FLAG-tagged recombinant human Ang1 (Alexis Biochemicals) (human, UniProt Q15389 20-498, limits assumed).
T1 construct: Bought reagent; also called hAng1; FLAG-hAng1
T1 sequence (looked up): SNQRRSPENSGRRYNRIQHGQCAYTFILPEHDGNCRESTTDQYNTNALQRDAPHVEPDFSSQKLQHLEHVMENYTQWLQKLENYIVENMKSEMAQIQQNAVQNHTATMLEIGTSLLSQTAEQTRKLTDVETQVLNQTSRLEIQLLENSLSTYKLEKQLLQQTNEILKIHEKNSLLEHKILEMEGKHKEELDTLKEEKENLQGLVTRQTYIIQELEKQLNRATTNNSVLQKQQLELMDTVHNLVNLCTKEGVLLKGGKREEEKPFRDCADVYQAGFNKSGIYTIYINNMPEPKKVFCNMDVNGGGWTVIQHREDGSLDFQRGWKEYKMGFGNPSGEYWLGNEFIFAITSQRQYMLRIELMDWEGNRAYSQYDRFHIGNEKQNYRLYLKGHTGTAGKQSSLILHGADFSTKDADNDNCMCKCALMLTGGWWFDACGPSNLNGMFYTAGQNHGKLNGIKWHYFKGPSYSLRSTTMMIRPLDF
The test is described as follows: ratio of IC50 in hAng1/hTie2 ELISA to IC50 in hAng2/hTie2 ELISA. As to the method: In brief, 2 μg/mL of Tie2/Fc chimera (R&D Systems, Minneapolis, Minn., USA) is coated in a 96-well MaxiSorp plate (Nunc, Wiesbaden, Germany).
In brief, 2 μg/mL of recombinant human Tie2-Fc (R&D Systems, Minneapolis, Minn., USA) is coated overnight at 4° C. in a 96-well MaxiSorp plate (Nunc, Wiesbaden, Germany). Coated wells are blocked with a 1% casein solution.

Test [2] deals with T2, recombinant mouse Ang2-FLD (mouse, UniProt O35608 275-496, limits assumed).
T2 construct: domain: FLD
T2 sequence (looked up): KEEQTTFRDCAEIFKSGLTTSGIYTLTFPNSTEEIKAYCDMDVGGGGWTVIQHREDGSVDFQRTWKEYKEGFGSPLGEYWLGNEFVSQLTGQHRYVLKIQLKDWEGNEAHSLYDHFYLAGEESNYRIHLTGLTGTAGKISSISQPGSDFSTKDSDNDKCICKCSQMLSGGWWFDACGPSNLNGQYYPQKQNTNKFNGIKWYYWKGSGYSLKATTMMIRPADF
In words: SPR (Biacore T100), binder on CM5 chip, Ang2-FLD as analyte. As to the method: (§1) In brief, VHH and benchmark compounds are immobilized on a CM5 chip via amine coupling. […] Ang2-FLD species are allowed to associate for 2 min and to dissociate for 20 min at a flow rate of 45 μL/min. In between injections, the surfaces are regenerated with a 10 sec pulse of 25 mM NaOH and 60 sec stabilization period. Association/dissociation data are evaluated by fitting a 1:1 interaction model (Langmuir binding). The affinity constant KD is calculated from resulting association and dissociation rate constants kₐ and kd and are depicted in Table 8.

The target of test [3] is T3, recombinant cynomolgus Ang2-FLD (cynomolgus).
T3 construct: domain: FLD; also called cyno Ang2-FLD
The description is as above. On the procedure:
as §1

The target of test [4] is T4, recombinant human Ang2-FLD (human, UniProt O15123 275-496, limits assumed).
T4 construct: domain: FLD; not used
T4 sequence (looked up): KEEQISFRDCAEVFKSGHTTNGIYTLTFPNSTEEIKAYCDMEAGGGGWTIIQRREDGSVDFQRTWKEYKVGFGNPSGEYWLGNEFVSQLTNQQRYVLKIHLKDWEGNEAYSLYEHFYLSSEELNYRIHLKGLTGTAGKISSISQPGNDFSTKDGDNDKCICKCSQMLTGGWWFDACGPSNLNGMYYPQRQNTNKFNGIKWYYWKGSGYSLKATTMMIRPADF
Described as above. As to the method:
as §1

The target in test [5] is T5, N-terminally FLAG-tagged mouse Ang2 (HEK293T conditioned medium) (mouse, UniProt O35608 19-496).
T5 construct: may be a nucleotide entry; also called mAng2; FLAG-mAng2
T5 sequence: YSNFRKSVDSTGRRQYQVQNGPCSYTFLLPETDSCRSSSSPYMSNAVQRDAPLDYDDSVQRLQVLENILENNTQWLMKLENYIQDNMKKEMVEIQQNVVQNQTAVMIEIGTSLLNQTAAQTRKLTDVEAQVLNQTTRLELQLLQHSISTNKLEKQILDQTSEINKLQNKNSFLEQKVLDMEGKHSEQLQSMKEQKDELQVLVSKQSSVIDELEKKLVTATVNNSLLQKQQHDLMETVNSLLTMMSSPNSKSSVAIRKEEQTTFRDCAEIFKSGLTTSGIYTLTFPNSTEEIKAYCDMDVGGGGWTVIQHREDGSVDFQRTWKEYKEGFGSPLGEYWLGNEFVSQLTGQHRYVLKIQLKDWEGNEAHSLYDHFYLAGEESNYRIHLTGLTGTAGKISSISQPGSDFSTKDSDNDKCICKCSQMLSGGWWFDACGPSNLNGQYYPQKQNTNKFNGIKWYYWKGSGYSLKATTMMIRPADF
In words: competition ELISA, FLAG-mAng2 on coated mTie2-Fc. On the procedure:
(§2) In brief, 2 μg/mL of recombinant mouse Tie2-Fc or cyno Tie2-Fc is coated overnight at 4° C. in a 96-well MaxiSorp plate (Nunc, Wiesbaden, Germany). Coated wells are blocked with a 1% casein solution.

The target of test [6] is T5, N-terminally FLAG-tagged mouse Ang2 …. The test is described as follows: competition ELISA, FLAG-mAng2 on coated mTie2-Fc. On the procedure:
as §2
The source holds these as a separate data set.

The target in test [7] is T6, N-terminally FLAG-tagged cynomolgus Ang2 (HEK293T conditioned medium) (cynomolgus, UniProt O15123 19-496 (human entry), limits assumed).
T6 construct: may be a nucleotide entry; also called cAng2; FLAG-cAng2
T6 chain: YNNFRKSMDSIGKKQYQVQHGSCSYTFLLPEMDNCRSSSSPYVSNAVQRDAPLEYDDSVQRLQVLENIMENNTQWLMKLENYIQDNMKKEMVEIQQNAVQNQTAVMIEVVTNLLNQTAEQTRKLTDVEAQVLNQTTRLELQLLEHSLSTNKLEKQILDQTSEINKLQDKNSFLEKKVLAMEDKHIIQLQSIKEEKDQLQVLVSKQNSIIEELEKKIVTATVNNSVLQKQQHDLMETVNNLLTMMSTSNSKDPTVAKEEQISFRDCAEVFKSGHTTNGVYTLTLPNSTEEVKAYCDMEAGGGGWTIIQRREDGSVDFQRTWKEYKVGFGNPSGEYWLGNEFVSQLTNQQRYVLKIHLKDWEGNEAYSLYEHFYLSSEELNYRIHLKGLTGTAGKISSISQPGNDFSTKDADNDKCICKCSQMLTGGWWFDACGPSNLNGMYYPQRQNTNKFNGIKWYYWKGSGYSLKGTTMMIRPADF
In words: competition ELISA, FLAG-cAng2 on coated cTie2-Fc. On the procedure:
as §2

Test [8] deals with T7, FLAG-tagged cynomolgus Ang2 (cynomolgus, UniProt O15123 19-496 (human entry), limits assumed).
T7 construct: N-terminally FLAG-tagged, conditioned medium of HEK293T cells; also called cAng2; FLAG-cAng2
T7 chain: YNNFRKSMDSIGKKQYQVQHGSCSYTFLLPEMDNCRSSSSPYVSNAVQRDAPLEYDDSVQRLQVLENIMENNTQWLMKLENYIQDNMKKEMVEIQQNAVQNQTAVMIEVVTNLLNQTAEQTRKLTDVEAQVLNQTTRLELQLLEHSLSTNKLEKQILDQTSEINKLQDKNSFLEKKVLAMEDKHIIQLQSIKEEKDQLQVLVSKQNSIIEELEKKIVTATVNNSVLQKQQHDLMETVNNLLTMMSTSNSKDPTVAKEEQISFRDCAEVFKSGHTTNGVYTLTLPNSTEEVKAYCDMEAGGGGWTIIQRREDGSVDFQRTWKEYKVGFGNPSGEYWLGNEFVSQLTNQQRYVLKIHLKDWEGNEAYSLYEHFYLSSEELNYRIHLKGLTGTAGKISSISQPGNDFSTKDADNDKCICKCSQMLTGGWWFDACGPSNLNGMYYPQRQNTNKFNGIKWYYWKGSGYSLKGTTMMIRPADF
In words: competition ELISA: FLAG-cAng2 binding to coated cTie2-Fc. On the procedure: as §2

The next test concerns the target T8, FLAG-tagged mouse Ang2 (mouse, UniProt O35608 19-496).
T8 construct: N-terminally FLAG-tagged, conditioned medium of HEK293T cells; also called mAng2; FLAG-mAng2
T8 sequence: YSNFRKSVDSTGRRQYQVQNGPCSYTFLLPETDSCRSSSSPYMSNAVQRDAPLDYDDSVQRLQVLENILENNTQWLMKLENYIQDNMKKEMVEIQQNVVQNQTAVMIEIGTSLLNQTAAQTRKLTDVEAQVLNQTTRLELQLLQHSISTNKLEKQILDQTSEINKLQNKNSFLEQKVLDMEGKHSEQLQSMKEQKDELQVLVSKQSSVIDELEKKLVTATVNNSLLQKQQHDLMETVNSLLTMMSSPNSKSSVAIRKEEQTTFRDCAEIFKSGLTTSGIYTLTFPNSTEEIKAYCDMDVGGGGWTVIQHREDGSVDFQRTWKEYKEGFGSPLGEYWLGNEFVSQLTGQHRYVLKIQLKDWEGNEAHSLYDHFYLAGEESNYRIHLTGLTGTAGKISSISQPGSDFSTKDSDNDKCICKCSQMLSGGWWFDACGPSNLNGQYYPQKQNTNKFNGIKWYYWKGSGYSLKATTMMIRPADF
The test is described as follows: competition ELISA: FLAG-mAng2 binding to coated mTie2-Fc. As to the method:
as §2

The target of test [9] is T9, recombinant cynomolgus Ang2-FLD (cynomolgus, UniProt A0A2K5VNX6 275-496).
T9 construct: domain: FLD; also called cyno Ang2-FLD
T9 sequence: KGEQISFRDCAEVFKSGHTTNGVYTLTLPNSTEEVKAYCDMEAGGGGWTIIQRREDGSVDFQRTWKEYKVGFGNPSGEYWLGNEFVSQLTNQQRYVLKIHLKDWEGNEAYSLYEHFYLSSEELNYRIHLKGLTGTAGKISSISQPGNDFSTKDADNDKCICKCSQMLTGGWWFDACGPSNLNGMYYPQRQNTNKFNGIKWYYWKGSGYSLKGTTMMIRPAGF
In words: SPR (Biacore T100), VHH immobilized, Ang2-FLD injected.

The target in test [10] is T10, recombinant mouse Ang2-FLD (mouse, UniProt O35608 275-496, limits assumed).
T10 construct: domain: FLD
T10 sequence (looked up): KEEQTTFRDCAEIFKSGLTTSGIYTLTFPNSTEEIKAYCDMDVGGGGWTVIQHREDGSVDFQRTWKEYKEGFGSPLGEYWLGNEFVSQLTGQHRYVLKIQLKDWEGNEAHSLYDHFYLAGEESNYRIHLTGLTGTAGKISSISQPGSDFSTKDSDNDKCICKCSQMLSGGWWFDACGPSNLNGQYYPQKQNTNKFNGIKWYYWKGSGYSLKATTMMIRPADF
The test is described as above.

The target of the next test is T11, recombinant rat Ang2-FLD (rat, UniProt O35462 275-496, limits assumed).
T11 construct: domain: FLD
T11 sequence (looked up): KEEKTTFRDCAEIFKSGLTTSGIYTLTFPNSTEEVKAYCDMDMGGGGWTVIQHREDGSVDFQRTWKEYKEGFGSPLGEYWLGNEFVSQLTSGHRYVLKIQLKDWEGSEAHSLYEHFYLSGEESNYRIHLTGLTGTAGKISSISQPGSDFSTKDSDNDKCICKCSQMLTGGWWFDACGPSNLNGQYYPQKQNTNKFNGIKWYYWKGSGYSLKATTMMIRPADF
Described as above.

Test [11] addresses T12, recombinant human Ang2-FLD (human, UniProt O15123 275-496, limits assumed).
T12 construct: domain: FLD
T12 sequence (looked up): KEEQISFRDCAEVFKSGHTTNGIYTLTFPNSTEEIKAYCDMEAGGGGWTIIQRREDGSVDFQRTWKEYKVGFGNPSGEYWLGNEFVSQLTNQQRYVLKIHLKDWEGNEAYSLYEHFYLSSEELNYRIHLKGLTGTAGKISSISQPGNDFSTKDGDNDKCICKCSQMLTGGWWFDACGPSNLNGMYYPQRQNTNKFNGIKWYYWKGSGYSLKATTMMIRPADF
The test is described as above.

B1: VHH 1D01 (VHH)
VHH: EVQLVESGGGLVQAGGSLRLSCAASGFTFDDYALGWFRQAAGKEREGVSCIRCSDGSTYYADSVKGRFTISSDNAKNTVYLQMNSLKPEDTAVYYCAASIVPRSKLEPYEYDAWGQGTQVTVSS
notes: also called 001D01; not shown: C-terminal c-myc tag and His6 tag
For the molecule B1, the hAng1/hAng2 ratio in test [1] is above 10800. For the same molecule, the Kd in [2] was 4.6 nM; in test [3] it was 1.4 nM; in test [4], 2 nM. In addition, the results for the koff in test [2], in [3] and in test [4] were 0.015 s⁻¹, 0.014 s⁻¹ and 0.015 s⁻¹, respectively. In addition, the kon worked out at 3.3e+06 M⁻¹ s⁻¹ in test [2], 9.9e+06 M⁻¹ s⁻¹ in test [3] and 7.7e+06 M⁻¹ s⁻¹ in [4]. Moreover, the IC50 was found to be 6.3 nM in test [5], 10 nM in test [6] and 16.4 nM in test [7].

B2: VHH 00956 (VHH, not shown: small tags and cut ends)
VHH: EVQLVESGGGLVQPGGSLRLSCAASGFTLDDYAIGWFRQAPGKEREGVSAIRSSGGSTYYADSVKGRFTISSDNSKNTVYLQMNSLRPEDTAVYYCAAVPAGRLRFGEQWYPLYEYDAWGQGTLVTVSS
As for B2, the IC50 in test [8] was found to be 0.83 nM; in the test with FLAG-tagged mouse Ang2 it was 2.2 nM. The Kd in test [9] stood at 0.72 nM; in [10], 4 nM; in the test with recombinant rat Ang2-FLD, 13 nM; in [11], 1.2 nM. For the same molecule, the koff in [9] stood at 0.0013 s⁻¹; in test [10] it was 0.0039 s⁻¹; in the test with recombinant rat Ang2-FLD, 0.0052 s⁻¹; in test [11], 0.0015 s⁻¹. Also, the kon in [9] amounted to 1.7e+06 M⁻¹ s⁻¹; in [10], 980000 M⁻¹ s⁻¹; with recombinant rat Ang2-FLD, 420000 M⁻¹ s⁻¹; in [11] it was 1.3e+06 M⁻¹ s⁻¹.

The values are drawn from patent US20230203146A1 (Boehringer Ingelheim, published 2023).
